According to PMC314469, “Protein Interaction Networks by Proteome Peptide Scanning” (PLoS Biology, 2004):

B1: 82-95 50-kDa subunit of ORC (peptide)
chain: DSIPLEPKKAKHLM
B2: 216-229 acetyl CoA hydrolase (peptide)
chain: DSIPVDPEKVVAIV
B3: 139-152 Hypothetical ORF (peptide)
chain: DSLPFAPLRKVYEL
B4: 490-503 Amino acid permease (peptide)
chain: DSLPKLPFRSWGQP
B5: 122-135 Hypothetical ORF (peptide)
chain: DVLPAGPVRSLEGA
B6: 311-324 3-phosphoglycerate dehydrogenase (peptide)
chain: DVYPHEPAKNGEGS
B7: 274-287 Mitochondrial ribosomal protein MRPL35 (YmL35) (peptide)
chain: DYLPPVPEKNAGKQ
B8: 109-122 scaffold protein for MAP kinase cascade (peptide)
chain: DYLPQHPHRTSSLP
B9: 249-262 Hypothetical ORF (peptide)
chain: DYQPLSPPRELDPD
B10: 505-518 Actin binding protein (peptide)
chain: EAAPQLPSRSSAAP
B11: 783-796 Hypothetical ORF (peptide)
chain: EANPDNPKKLDLKA
B12: 158-171 putative methylenetetrahydrofolate reductase (mthfr) (peptide)
chain: ESHPELPNKDVKLD
B13: 81-94 transcription factor (peptide)
chain: EHKPVSPDKIGTFT
B14: 597-610 component of vacuolar membrane protein complex (peptide)
chain: EIAPLIPKKPALRK
B15: 471-484 Actin binding protein (peptide)
chain: EIAPSLPSRNSIPA
B16: 379-392 Hypothetical ORF (peptide)
chain: EILPQAPAKKVFES
B17: 808-821 involved in bud site selection (peptide)
chain: EILPVKPTKKSSKK
B18: 528-541 Ubiquitin-specific protease (peptide)
chain: EIPPPLPPKIMVHS
B19: 276-289 involved in cell wall biogenesis (peptide)
chain: ELDPISPLKVPLTA
B20: 53-66 "glucose repression protein, a component of the Snf1 complex" (peptide)
chain: ELEPQHPLRHKSSL
B21: 619-632 " contains 3 SH3 domains, interacts with Bee1p" (peptide)
chain: ELPPIKPPRPTSTT
B22: 164-177 Homolog of mammalian 14-3-3 proteins;member of conserved eukaryotic 14-3-3 gene family (peptide)
chain: ELPPTHPIRLGLAL
B23: 51-64 Product of gene unknown (peptide)
chain: EMIPSSPQRKSVSN
B24: 549-562 Arf-binding protein (peptide)
chain: ENAPANPSKALKVK
B25: 638-651 transcription factor (peptide)
chain: ENFPIVPLKSVAQD
B26: 41-54 Putative helicase similar to RAD54 (peptide)
chain: ENKPFKPPRRVGSN
B27: 81-94 Hypothetical ORF (peptide)
chain: ENVPLYPSRRNIWE
B28: 100-113 35 kDa protein belonging to the high mobility group (HMG) fanily of proteins (peptide)
chain: ERDPNAPKKPLTVF
B29: 88-101 HMG1-box containing protein (peptide)
chain: ERDPNMPKRPTNAY
B30: 1359-1372 negative regulator of early meiotic gene expression (peptide)
chain: ETVPTEPTRYNYQN
B31: 687-700 putative serine/threonine kinase (peptide)
chain: EVSPVEPKRTENER
B32: 591-604 Hypothetical ORF (peptide)
chain: EYFPISPEKKEEME
B33: 234-247 Hypothetical ORF (peptide)
chain: EYHPIKPLRSSSST
B34: 356-369 mitochondrial protein; (putative) chaperone (peptide)
chain: EYSPLVPSKMSADK
B35: 74-87 Hypothetical ORF (peptide)
chain: FSHPLSPLKSNFID
B36: 196-209 Product of gene unknown (peptide)
chain: FDFPLSPVKHENPT
B37: 112-125 Hypothetical ORF (peptide)
chain: FFHPAIPLKNAAPF
B38: 526-539 " Putative integral membrane protein containing novel cysteine motif. Similarity to SLG1 (WSC1), WSC2 and WSC3" (peptide)
chain: FHDPILPRRTSTFL
B39: 471-484 Hypothetical ORF (peptide)
chain: FISPHLPMKGRLVL
B40: 587-600 Hypothetical ORF (peptide)
chain: FLPPPKPFRHTETK
B41: 375-388 transcription factor (peptide)
chain: FPDPNNPSKVQIRM
B42: 440-453 Hypothetical ORF (peptide)
chain: FPYPFKPSRVGVKY
B43: 862-875 Pho85 kinase inhibitor (peptide)
chain: FPYPGNPLKIINYE
B44: 657-670 Hypothetical ORF (peptide)
chain: FQPPPKPFRRSQSS
B45: 106-119 " mRNA guanylyltransferase (mRNA capping enzyme), alpha subunit" (peptide)
chain: FRFPRLPQKKKEEL
B46: 393-406 Actin binding protein (peptide)
chain: FSKPQEPVKAEEAE
B47: 316-329 " Yeast homologue of mammalian GRASP proteins, also localised to the Golgi apparatus." (peptide)
chain: FTAPPVPTKKKSKN
B48: 310-323 H+-biotin symporter (peptide)
chain: FVIPGVPSKSYSLF
B49: 171-184 " 1,4-glucan-6-(1,4-glucano)-transferase" (peptide)
chain: FWNPENPYKFVHPR
B50: 124-137 Unknown (peptide)
chain: GAKPKIPSKLYQSV
B51: 91-104 phosphatidylserine decarboxylase located in vacuole or Golgi (peptide)
chain: GAPPTTPSRPRTTT
B52: 193-206 subunit of a cytoplasmic histone acetyltransferase (peptide)
chain: GGDPTKPVRTWNDL
B53: 379-392 Hypothetical ORF (peptide)
chain: GGQPPVPVRMQPQP
B54: 256-269 mitochondrial ribosomal protein L2 of the large subunit (peptide)
chain: GITPVGPGKFSRSA
B55: 340-353 isopropylmalate isomerase (peptide)
chain: GLEPNTPLKSIKVD
B56: 476-489 Mitochondrial outer membrane protein involved in mitochondrial morphology and inheritance (peptide)
chain: GNIPVFPAKFGIQF
B57: 44-57 Hexose transporter (peptide)
chain: GNTPDAPKRGFLGY
B58: 192-205 " contains 3 SH3 domains, interacts with Bee1p" (peptide)
chain: GPPPAMPARPTATT
B59: 219-232 component of cytoplasmic chaperonin complex (peptide)
chain: GRHPDMPTRVKNAY

Biological target: Sho1 SH3 (SHO1_YEAST), P40073
Sequence (P40073 295-366): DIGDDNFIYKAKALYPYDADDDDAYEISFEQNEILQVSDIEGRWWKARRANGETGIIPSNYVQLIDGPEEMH
Assay: SPOT array

Binder | normalised SPOT signal, Boehringer light units (BLU); mean over the file's lines of this peptide
B1 | 133
B2 | 91
B3 | 96.8
B4 | 333
B5 | 115
B6 | 132
B7 | 224
B8 | 87.8
B9 | 75.3
B10 | 86.7
B11 | 130
B12 | 53.7
B13 | 0
B14 | 183
B15 | 163
B16 | 132
B17 | 281
B18 | 5100
B19 | 127
B20 | 102

Binder | normalised SPOT signal, Boehringer light units (BLU); mean over the file's lines of this peptide
B21 | 102
B22 | 161
B23 | 164
B24 | 69.7
B25 | 45.8
B26 | 164
B27 | 178
B28 | 157
B29 | 83.8
B30 | 32.8
B31 | 182
B32 | 56.7
B33 | 105
B34 | 183
B35 | 164
B36 | 27.7
B37 | 162
B38 | 275
B39 | 441
B40 | 483

Binder | normalised SPOT signal, Boehringer light units (BLU); mean over the file's lines of this peptide
B41 | 166
B42 | 121
B43 | 214
B44 | 884
B45 | 773
B46 | 257
B47 | 4360
B48 | 284
B49 | 129
B50 | 145
B51 | 29.2
B52 | 112
B53 | 120
B54 | 156
B55 | 139
B56 | 213
B57 | 45.5
B58 | 89.9
B59 | 189
